Experimental data taken from US20040180375A1.

T1: yeast GPA1 (yeast) (UniProt P08539)
T1 sequence (looked up): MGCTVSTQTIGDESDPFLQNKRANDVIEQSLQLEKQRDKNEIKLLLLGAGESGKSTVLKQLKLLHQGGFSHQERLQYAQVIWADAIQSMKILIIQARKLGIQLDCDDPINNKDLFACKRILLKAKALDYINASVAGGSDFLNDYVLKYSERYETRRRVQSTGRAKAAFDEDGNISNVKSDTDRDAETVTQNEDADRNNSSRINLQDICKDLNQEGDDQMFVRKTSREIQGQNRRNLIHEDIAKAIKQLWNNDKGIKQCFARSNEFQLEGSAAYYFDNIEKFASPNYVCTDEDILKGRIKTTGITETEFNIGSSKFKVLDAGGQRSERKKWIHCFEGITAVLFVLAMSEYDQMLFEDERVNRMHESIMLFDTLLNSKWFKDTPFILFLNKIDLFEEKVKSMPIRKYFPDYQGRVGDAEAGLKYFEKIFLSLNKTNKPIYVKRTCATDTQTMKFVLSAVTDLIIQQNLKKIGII


Legend:
Assay in all cases: cell-based or functional assay
[1] = target: human His6-Gαi2 (expressed in Sf9 cells) (human) (UniProt P04899)
[2] = target: GPA1(1-41)-Gα16(S270P) (GPA1-human Gα16 fusion construct) (yeast; human)
[3] = target: GPA1(1-41)-Gαi2 chimera (first 41 amino acids of yeast Gpa1 fused to amino acids 36-356 of human Gαi2) (yeast; human) (UniProt P08539)
[4] = target: GPA1(1-41)-Gαi3 (GPA1-human Gαi3 fusion construct) (yeast; human) (UniProt P08539)
rat Gαs (rat) = rat Gαs (rat) (UniProt P63095)
yeast GPA1 (yeast) = target: T1, yeast GPA1 (yeast)

Sequence of rat Gαs (rat) (P63095 whole entry): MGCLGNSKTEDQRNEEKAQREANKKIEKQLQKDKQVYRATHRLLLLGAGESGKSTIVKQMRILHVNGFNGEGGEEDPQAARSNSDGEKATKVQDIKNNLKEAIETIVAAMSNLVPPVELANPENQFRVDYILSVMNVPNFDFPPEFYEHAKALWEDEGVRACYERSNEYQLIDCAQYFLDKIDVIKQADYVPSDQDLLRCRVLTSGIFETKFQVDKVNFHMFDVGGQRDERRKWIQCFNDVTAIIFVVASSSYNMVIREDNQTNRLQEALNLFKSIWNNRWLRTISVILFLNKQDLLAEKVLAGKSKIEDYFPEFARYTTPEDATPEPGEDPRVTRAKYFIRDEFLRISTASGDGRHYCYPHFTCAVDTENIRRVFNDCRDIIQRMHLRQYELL
Sequence of human His6-Gαi2 (expressed in Sf9 cells) (human) (P04899 whole entry, the tested form may be a part): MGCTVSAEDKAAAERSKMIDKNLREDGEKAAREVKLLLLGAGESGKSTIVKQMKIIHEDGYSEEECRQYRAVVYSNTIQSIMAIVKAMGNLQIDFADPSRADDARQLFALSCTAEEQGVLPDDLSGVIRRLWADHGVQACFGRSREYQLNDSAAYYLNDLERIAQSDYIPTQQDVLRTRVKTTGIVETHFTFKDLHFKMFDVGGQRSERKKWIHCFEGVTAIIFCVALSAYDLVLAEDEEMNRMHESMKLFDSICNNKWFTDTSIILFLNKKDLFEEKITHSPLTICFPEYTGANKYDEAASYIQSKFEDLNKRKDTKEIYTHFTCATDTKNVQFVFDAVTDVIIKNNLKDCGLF

| Binder | GTPγS binding to purified Gα (filter binding of GTPγ35S, 40 min) [1] | β-galactosidase activity (FUS1p-lacZ reporter in yeast, AGS1, galactose) (relative β-galactosidase activity) [2] | β-galactosidase activity (FUS1p-lacZ reporter in yeast, AGS1, galactose) (relative β-galactosidase activity) [3] | β-galactosidase activity (FUS1p-lacZ reporter in yeast, AGS1, galactose) (relative β-galactosidase activity) [4] | β-galactosidase activity (FUS1p-lacZ reporter in yeast, AGS1, galactose) (relative β-galactosidase activity) (rat Gαs (rat)) | β-galactosidase activity (FUS1p-lacZ reporter in yeast, AGS1, galactose) (relative β-galactosidase activity) (yeast GPA1 (yeast)) |
| --- | --- | --- | --- | --- | --- | --- |
| GST-AGS1 (N-terminal GST fusion of AGS1, expressed in yeast from the CUP1 promoter on plasmid pYEX-4T1) (protein, not shown: a dimerising Fc or GST) MKLAAMIKKMCPSDSELSIPAKNCYRMVILGSSKVGKTAIVSRFLTGRFEDAYTPTIEDFHRKFYSIRGEVYQLDILDTSGNHPFPAMRRLSILTGDVFILVFSLDNRDSFEEVQRLRQQILDTKSCLKNKTKENVDVPLVICGNKGDRDFYREVDQREIEQLVGDDPQRCAYFEISAKKNSSLDQMFRALFAMAKLPSEMSPDLHRKVSVQYCDVLHKKALRNKKLLRAGSGGGGGDPGDAFGIVAPFARRPSVHSDLMYIREKASAGSQAKDKERCVIS | 25% | – | – | – | – | – |
| AGS1 (Activator of G protein Signaling, human, 281 amino acids) (protein) MKLAAMIKKMCPSDSELSIPAKNCYRMVILGSSKVGKTAIVSRFLTGRFEDAYTPTIEDFHRKFYSIRGEVYQLDILDTSGNHPFPAMRRLSILTGDVFILVFSLDNRDSFEEVQRLRQQILDTKSCLKNKTKENVDVPLVICGNKGDRDFYREVDQREIEQLVGDDPQRCAYFEISAKKNSSLDQMFRALFAMAKLPSEMSPDLHRKVSVQYCDVLHKKALRNKKLLRAGSGGGGGDPGDAFGIVAPFARRPSVHSDLMYIREKASAGSQAKDKERCVIS | – | 22.5 | 125 | 63.3 | 6.4 | 7.6 |
